B1: RAS guanyl-releasing protein 1, residues 539 to 593; numbered along this chain, O95267 (parent)
chain: GFPHNFQETTYLKPTFCDNCAGFLWGVIKQGYRCKDCGMNCHKQCKDLVVFECKK

Variants of: B1
Experiment: abundance fitness (aPCA) (normalised: wild type 0, dead -1); higher = more abundant; growth selection in yeast, the domain comes from the species named
Details: Homo sapiens

Abundance fitness of substitutions, site by site:
L24: W -0.617; A -0.396; Q -0.424; F -0.006; R -0.375; T -0.279; E -0.369; D -0.709; P -0.612; K -0.333; M 0.248; Y -0.623; C -0.118; I -0.049; G -0.48; H -0.465; V -0.241; N -0.303; S -0.325
F16: W -0.376; L -0.487; E -0.408; P -0.334; N -0.175; Q -0.243; H -0.148; S -0.285; D -0.371; C 0.038; G -0.333; A -0.085; V -0.385; T -0.33; K -0.205; Y 0.024
T10: A -0.408; Q -0.357; S -0.092; R -0.494; F -0.045; P -0.605; E -0.925; K -0.456; L -0.426; H -0.364; M -0.682; I -0.576; G -0.208; V -0.95; Y -0.291; W -0.073; N -0.311
T9: R -0.068; S 0.028; H -0.021; F -0.216; Y -0.013; K -0.473; W -0.136; E -0.376; M 0.034; C -0.035; D -0.131; I -0.203; L -0.184; G -0.273; N -0.051; Q -0.056; P -0.768
D18: K -0.017; N -0.026; I -0.142; R -0.059; A -0.016; L -0.013; Q -0.001; W 0.123; Y -0.315; G -0.294; E -0.087; T 0.205; H -0.383; M -0.079; C -0.253; P -0.732; F -0.063; V -0.132; S 0.028
Y11: D -0.832; V -0.25; N -0.225; P -0.742; H 0; E -0.256; S 0.028; K -0.036; I -0.301; W -0.17; F 0.227; T -0.318; R -0.214; Q -0.458; L -0.031; C -0.151; A -0.267
P14: C -0.235; L -0.296; K -0.672; W -0.108; D -0.38; F -0.364; N -0.931; H -0.687; T -0.767; Y -0.397; R -0.739; V -0.384; E -0.886; Q -1; I -0.647; G -0.449; A -0.253
K13: A -0.223; W -0.131; M 0.04; I -0.257; L -0.028; D -0.603; S -0.116; F -0.167; T -0.105; P -0.507; R -0.231; C -0.153; G -0.333; V -0.106; N -0.336; H 0.015; E -0.565; Q -0.247
F23: Y -0.074; D -0.423; T -0.503; S -0.431; H -0.706; W 0.014; M -0.022; L 0.105; E -0.333; A -0.433; P -0.409; V -0.132; Q -0.204; I -0.032; K -0.297; G -0.328; R -0.242; C -0.166; N -0.628
F6: N -0.29; V -0.06; R -0.574; S -0.252; Q -0.309; P -0.477; Y -0.093; W -0.667; T -0.436
T15: N -0.336; R -0.29; D -0.622; A 0.105; Q -0.426; F -0.434; G -0.607; P -0.476; K -0.391; C -0.327; V -0.425; M -0.146; W -0.444; H -0.185; I -0.162; L -0.236; E -0.401; S -0.181
E8: V 0.039; Y -0.105; Q 0.086; D -0.452; P -0.303; S -0.191; N -0.152; T -0.274; I -0.063; F -0.096; G 0.007; H -0.765; M 0.197; A 0.039; R -0.068; W -0.174; C -0.107
W25: D -0.121; E -0.047; N -0.377; F -0.143; C -0.558; Y -0.191; R -0.217; T 0.157; G -0.425; S -0.246; M -0.247; H -0.226; I -0.038; P -0.07; A -0.148; L -0.286; V -0.102; Q -0.128; K -0.206
L12: R -0.178; S -0.123; P -0.149; Y -0.145; N -0.768; E -0.19; C -0.183; Q -0.337; M 0.319; F -0.076; G -0.038; W -0.298; T -0.25; V -0.39; D -0.424; I -0.63
G26: A -0.225
C20: H -0.695; D -0.541; V -1.13; E -0.931; S -1.24; Q -1.01; G -1.12; T -1.05; M -1.05; R -0.74; A -1.01; L -0.974; W -0.827; N -1.29
C17: R -0.851; M -0.578; W -1.27; G -0.99; L -1.26; E -0.826; D -0.986; I -0.869; Q -0.755; F -1.14; P -1.13; H -0.784; S -0.948; A -1.09; T -0.821; V -0.878
Q7: M 0.028; N 0.016; C -0.366; E -0.073; P -0.961; D -0.204; I -0.217; V -0.197; L -0.149; R -0.123; H -0.096; G -0.116; S -0.127; T -0.236; A -0.027; K -0.484; Y -0.151
A21: I 0.04; R 0.053; G -0.084; P -0.116; M -0.162; Y 0.13; W -0.222; K 0.019; F -0.074; V -0.071; E -0.041; Q -0.311; T 0.043; C -0.009; H -0.082
N19: E 0.11; I -0.163; Y -0.142; L -0.018; D -0.101; C -0.061; T -0.043; F 0.068; H -0.02; V -0.02; S 0.05; G 0.134; R -0.036; M 0.135; W 0.082; K -0.052; Q -0.29; A 0.065
G22: M 0.105; H -0.078; V -0.482; P -0.595; Q -0.146; I -0.154; R -0.082; K -0.278; E -0.164; N -0.298; Y -0.317; S -0.066; F -0.386; D -0.189; C 0.147

Source: the Human Domainome abundance scans (Beltran et al. 2025)
